One may read the stoichiometry N as a count of units in the complex or per binding partner.

The results in this text go back to paper PMC3236778.

Test [1] has as its target GkDnaC K309A mutant (Geobacillus kaustophilus HTA426). Description: SEC; size-exclusion column during purification; data not shown. (In gel filtration, larger molecules generally elute earlier.)
Test [2] addresses GkDnaC R420A mutant (arginine finger) (Geobacillus kaustophilus HTA426). The description is as above.
The target of test [3] is GkDnaC helicase, wild-type (replicative helicase of Geobacillus kaustophilus HTA426) (Geobacillus kaustophilus HTA426). The description is as above.
Test [4] has the same target.

Turning to GkDnaC K309A mutant (enzyme), the stoichiometry N in test [1] amounted to 6.

Regarding “GkDnaC R420A mutant (arginine finger) (enzyme)”, the stoichiometry N in test [2] turned out to be 6.

In the case of “GkDnaC helicase, wild-type (replicative helicase of Geobacillus kaustophilus HTA426) (enzyme)”, the stoichiometry N in test [3] came to 6.

Regarding “GkDnaI helicase loader (natural protein)”, in test [4], the ATPase activity of the GkDnaC-GkDnaI complex (NADH-coupled assay) was 18.1 µM/min and the unwinding efficiency (fold, against GkDnaC alone), gel shift assay of fork DNA unwinding amounted to 0.15 fold.

B1: GkDnaG primase, full-length wild-type (enzyme)
chain: MGHRIPEETIEAIRRGVDIVDVIGEYVQLKKQGRNYFGLCPFHGEKTPSFSVSPEKQIFHCFGCGAGGNAFTFLMDIEGIPFVEAAKRLAAKAGIDLSAYELDSRGSDGSRADEAKAMVEAHTLLKRFYHHLLVHTKEGQAALDYLQVRGWTKETIDRFEIGYAPDVPDAAVRLLESRSFPLVLMEKAGLLVKKEDGRYVDRFRNRIMFPIHDHRGETVGFSGRLLGDGQPKYMNSPETPIFRKGTLLYFFHEARVSIRKRQEALLVEGFADVISAVQAGVDYVVATMGTSLTEEQARILRRHAETVTICYDGDSAGTEAAWRAAEQLSAFGCRVKVALLPDGLDPDEYIRTCGADRFAEEIAAARPLMAFKMDRLRRGKNLQEEGDRLRYIEEALREISKLSSPVEKDYYMRQLADEFSLSLSALYEQLSRSKPEQPKPQVNDGGKPVRPALTKKLLPAFQNAERLLLAHMMRSRDVAFIVQEQVGGRFNIEEHRALAAYIYAFYEEGHEADPSALMSRLPGELRTLASELSLLLVADDVSDRELADCIRHVLNHPKWLMLKEKEQEKTEAERRKDFLTAARIAKEMIEMKKMLSSS
As to B1, in test [4], the ATPase activity of the GkDnaC-GkDnaG complex (NADH-coupled assay) came out at 79.5 µM/min; the unwinding efficiency (fold, against GkDnaC alone), gel shift assay of fork DNA unwinding worked out at 1.45 fold; the unwinding velocity of the GkDnaC-GkDnaG complex (smTPM) is 7.44 bp/s.
